Assay results: article PMC7396682, “Effect of a Novel Alpha/Beta Hydrolase Domain Protein on Tolerance of K. marxianus to Lignocellulosic Biomass Derived Inhibitors” (Frontiers in Bioengineering and Biotechnology, 2020)
Substitutions are numbered along the chain they refer to. Names may count otherwise.

B1: KmYME (Kluyveromyces marxianus DMKU3-1042) (protein)
chain: MLLAYTVRPSNWSFTRRAYSATARAFNQQKGLLPLPIKETVDMAYDLHLPERSVIGKMPYHSPEPIIFYHGLLGSKRNYRHDCKKLATALQTPVYTVDIRNHGSSEHALPFDYNTLVNDLVHFAETHSLGKVNLVGYSLGAKVAMLACLKHPERFSAACIIDNSPEEQPHIKPLLTALVKSCVKLLDHHNVRADDKLWRHKASEALKKYIPDAGIRYYLLSNIINNPRVVEYRSPVINYDDGMLHFKNPVRHMMDFVTKEVAAWPTQELEGKQFLGPVNFIKATRSDFINPKSLQAINQYFPYHNIDEINATHFILNERPQEYLRAVTDFFKVTRYQLEKKREQDLAKIDQLNASESLKSARD
notes: expressed from pWD010 (T7 promoter) in E. coli BL21(DE3), nickel-column purified (tag not described); native full length 360 aa
B2: KmYME (Kluyveromyces marxianus DMKU3-1042; L139M/Y137H) (protein)
chain: B1 chain with Y137H, L139M
notes: as for B1

Experiments:
Assay in all cases: purified protein
Assay type in all cases: biochemical, Kluyveromyces marxianus
purified protein [1] = substrate: CCCC(=O)Oc1ccc([N+](=O)[O-])cc1; details: 50 mM Tris-HCl, pH 8.0, 37 °C
purified protein [2] = substrate: CCCCCCCCCC(=O)SCCNC(=O)CCNC(=O)[C@H](O)C(C)(C)COP(=O)(O)OP(=O)(O)OC[C@H]1O[C@@H](n2cnc3c(N)ncnc32)[C@H](O)[C@@H]1OP(=O)(O)O; details: 100 mM HEPES, pH 8.0, 37 °C, 1 mM DTNB
purified protein [3] = substrate: CCCC(=O)SCCNC(=O)CCNC(=O)[C@H](O)C(C)(C)COP(=O)(O)OP(=O)(O)OC[C@H]1O[C@@H](n2cnc3c(N)ncnc32)[C@H](O)[C@@H]1OP(=O)(O)O; details: 100 mM HEPES, pH 8.0, 37 °C, 1 mM DTNB
purified protein [4] = substrate: CC(=O)Oc1ccc([N+](=O)[O-])cc1; details: 50 mM Tris-HCl, pH 8.0, 37 °C
purified protein [5] = substrate: CC(C)(COP(=O)(O)OP(=O)(O)OC[C@H]1O[C@@H](n2cnc3c(N)ncnc32)[C@H](O)[C@@H]1OP(=O)(O)O)[C@@H](O)C(=O)NCCC(=O)NCCSC(=O)CCC(=O)O; details: 100 mM HEPES, pH 8.0, 37 °C, 1 mM DTNB

| Protein | Km (purified protein [1]) | Km (purified protein [2]) | Km (purified protein [3]) | Km (purified protein [4]) | Km (purified protein [5]) |
| --- | --- | --- | --- | --- | --- |
| B1 | 258.41 ± 5.97 µM | 329.20 ± 12.75 µM | 468.44 ± 20.62 µM | 189.73 ± 12.20 µM | 387.58 ± 3.42 µM |
| B2 | 685.66 ± 34.83 µM | 449.88 ± 87.78 µM | 1138.20 ± 185.83 µM | 193.89 ± 10.00 µM | 1022.84 ± 145.83 µM |
